IC50 data for one molecule are collected here from US20260042817A1 (PROVIDENCE HEALTH AND SERVICES OREGON, published 2026).

As usually defined, the IC50 is the concentration at which inhibition is half-maximal.

In the test the target is T1, recombinant TGFβ (Homo sapiens (Human), UniProt P01137 279-390, Active TGFβ is a disulfide-linked homodimer ('TGFβ exists as a dimer'). One protomer is given; the assay form is two identical copies.).
T1 construct: also called TGF-beta; transforming growth factor beta
T1 sequence (P01137 279-390 limits assumed, form in doubt): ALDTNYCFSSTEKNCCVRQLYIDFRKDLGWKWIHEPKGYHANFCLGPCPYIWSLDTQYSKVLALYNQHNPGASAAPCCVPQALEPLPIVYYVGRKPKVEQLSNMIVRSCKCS
Description: solution incubation of TGFβ (500 pg/mL) with a range of Fc:TβRII concentrations, 20 min at room temperature; remaining unbound TGFβ read on an anti-TGFβ1 ELISA plate. The procedure: The Fc:TβRII recombinant protein (glycosylated) was tested in vitro using enzyme-linked immunosorbent assay (ELISA) to verify a selective and high binding affinity for TGFβ. A known quantity of recombinant TGFβ (500 pg/mL) was incubated with a range of concentrations of Fc:TβRII in aqueous solution at room temperature for 20 minutes. Aliquots from each sample were applied to an anti-TGFβ1 ELISA plate to measure the remaining unbound TGFβ.

B1: Fc:TβRII recombinant protein (glycosylated) (Fc fusion)
chain: TIPPHVQKSVNNDMIVTDNNGAVKFPQLCKFCDVRFSTCDNQKSCMSNCSITSICEKPQEVCVAVWRKNDENITLETVCHDPKLPYHDFILEDAASPKCIMKEKKKPGETFFMCSCSSDECNDNIIFSEEYNTSNPDLLLVIFQSSSTMVRSVECPPCPAPPVAGPSVFLFPPKPKDTLMISRTPEVTCVVVDVSHEDPEVQFNWYVDGMEVHNAKTKPREEQFNSTFRVVSVLTVVHQDWLNGKEYKCKVSNKGLPAPIEKTISKTKGQPREPQVYTLPPSREEMTKNQVSLTCLVKGFYPSDIAVEWESNGQPENNYKTTPPMLDSDGSFFLYSKLTVDKSRWQQGNVFSCSVMHEALHNHYTQKSLSLSPGK
modifications: N-glycosylated (expressed in HEK 293T cells); sites not stated
notes: Purified on Protein A from HEK 293T supernatant; also called Fc:TβRII protein; unconjugated Fc:TβRII protein
Turning to B1, the IC50 worked out at 0.27 µg/mL.
